# Assays:
# 5HT3a = biological target: T1, 5HT3a (Homo sapiens, UniProt P46098); assay: Ion channel panel (IonWorks Barracuda): 5HT3a; type: cell-based
# T1 construct: host or cells: HEK293 or CHO
# T1 sequence (P46098 whole entry, looked up): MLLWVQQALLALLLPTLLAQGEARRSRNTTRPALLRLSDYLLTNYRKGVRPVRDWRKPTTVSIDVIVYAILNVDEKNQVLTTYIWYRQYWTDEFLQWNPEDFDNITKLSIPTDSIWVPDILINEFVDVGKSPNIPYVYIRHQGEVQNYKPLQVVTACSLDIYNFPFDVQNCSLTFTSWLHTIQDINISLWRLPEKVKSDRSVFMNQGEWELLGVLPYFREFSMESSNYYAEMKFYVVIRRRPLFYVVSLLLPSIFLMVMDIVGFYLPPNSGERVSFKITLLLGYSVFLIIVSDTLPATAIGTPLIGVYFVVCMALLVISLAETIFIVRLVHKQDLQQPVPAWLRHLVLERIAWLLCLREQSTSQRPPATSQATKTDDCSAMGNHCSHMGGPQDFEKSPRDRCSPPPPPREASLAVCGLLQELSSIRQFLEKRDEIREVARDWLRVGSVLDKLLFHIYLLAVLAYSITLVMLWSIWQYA
# Procedure, shortened: (§1)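 Peptides were tested in duplicate at final 20 μM and 200 nM, with concentration set by amino acid analysis, in HEPES-buffered saline. They were applied for at least 5 min to HEK293 or CHO cells transfected with each channel. Currents were expressed as % inhibition, 1-(Ipeptide/Icontrol)×100, or % activation, Ipeptide/Icontrol×100, against a channel-matched reference compound.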
# α3β4 = biological target: T2, α3β4 (Homo sapiens, UniProt P30926+P32297); assay: Ion channel panel (IonWorks Barracuda): α3β4; type: cell-based; settings: 100% = no change, <100% = inhibition
# T2 construct: host or cells: HEK293 or CHO
# Procedure, shortened: as §1
# α4β2 = biological target: T3, α4β2 (Homo sapiens, UniProt P17787+P43681); assay: Ion channel panel (IonWorks Barracuda): α4β2; type: cell-based; settings: 100% = no change, <100% = inhibition
# T3 construct: host or cells: HEK293 or CHO
# Procedure, shortened: as §1
# Cav2.1 = biological target: T4, Cav2.1 (Homo sapiens, UniProt O00555); assay: cell-based; settings: 100% = no change, <100% = inhibition
# T4 construct: host or cells: HEK293 or CHO
# Procedure, shortened: as §1
# Cav2.2 = biological target: T5, Cav2.2 (Homo sapiens, UniProt Q00975); assay: cell-based; settings: 100% = no change, <100% = inhibition
# T5 construct: host or cells: HEK293 or CHO
# Procedure, shortened: as §1
# Kv2.1 = biological target: T6, Kv2.1 (Homo sapiens, UniProt Q14721); assay: cell-based; settings: 100% = no change, <100% = inhibition
# T6 construct: host or cells: HEK293 or CHO
# Procedure, shortened: as §1
# GABA = assay: Ion channel panel (IonWorks Barracuda): GABA; type: cell-based; settings: 100% = no change, <100% = inhibition
# Procedure, shortened: as §1
# Nav1.5 = Nav1.5 (Homo sapiens, UniProt Q14524); assay: in vitro; settings: 100% = no change; for Activity of Nav1.5 with peptide, expressed as a percentage of the reference compound: peptide at 0.2 μM; for Activity of Nav1.5 with peptide (percentage of the reference compound): peptide at 20 μM
# Nav1.5, sequence (Q14524 whole entry): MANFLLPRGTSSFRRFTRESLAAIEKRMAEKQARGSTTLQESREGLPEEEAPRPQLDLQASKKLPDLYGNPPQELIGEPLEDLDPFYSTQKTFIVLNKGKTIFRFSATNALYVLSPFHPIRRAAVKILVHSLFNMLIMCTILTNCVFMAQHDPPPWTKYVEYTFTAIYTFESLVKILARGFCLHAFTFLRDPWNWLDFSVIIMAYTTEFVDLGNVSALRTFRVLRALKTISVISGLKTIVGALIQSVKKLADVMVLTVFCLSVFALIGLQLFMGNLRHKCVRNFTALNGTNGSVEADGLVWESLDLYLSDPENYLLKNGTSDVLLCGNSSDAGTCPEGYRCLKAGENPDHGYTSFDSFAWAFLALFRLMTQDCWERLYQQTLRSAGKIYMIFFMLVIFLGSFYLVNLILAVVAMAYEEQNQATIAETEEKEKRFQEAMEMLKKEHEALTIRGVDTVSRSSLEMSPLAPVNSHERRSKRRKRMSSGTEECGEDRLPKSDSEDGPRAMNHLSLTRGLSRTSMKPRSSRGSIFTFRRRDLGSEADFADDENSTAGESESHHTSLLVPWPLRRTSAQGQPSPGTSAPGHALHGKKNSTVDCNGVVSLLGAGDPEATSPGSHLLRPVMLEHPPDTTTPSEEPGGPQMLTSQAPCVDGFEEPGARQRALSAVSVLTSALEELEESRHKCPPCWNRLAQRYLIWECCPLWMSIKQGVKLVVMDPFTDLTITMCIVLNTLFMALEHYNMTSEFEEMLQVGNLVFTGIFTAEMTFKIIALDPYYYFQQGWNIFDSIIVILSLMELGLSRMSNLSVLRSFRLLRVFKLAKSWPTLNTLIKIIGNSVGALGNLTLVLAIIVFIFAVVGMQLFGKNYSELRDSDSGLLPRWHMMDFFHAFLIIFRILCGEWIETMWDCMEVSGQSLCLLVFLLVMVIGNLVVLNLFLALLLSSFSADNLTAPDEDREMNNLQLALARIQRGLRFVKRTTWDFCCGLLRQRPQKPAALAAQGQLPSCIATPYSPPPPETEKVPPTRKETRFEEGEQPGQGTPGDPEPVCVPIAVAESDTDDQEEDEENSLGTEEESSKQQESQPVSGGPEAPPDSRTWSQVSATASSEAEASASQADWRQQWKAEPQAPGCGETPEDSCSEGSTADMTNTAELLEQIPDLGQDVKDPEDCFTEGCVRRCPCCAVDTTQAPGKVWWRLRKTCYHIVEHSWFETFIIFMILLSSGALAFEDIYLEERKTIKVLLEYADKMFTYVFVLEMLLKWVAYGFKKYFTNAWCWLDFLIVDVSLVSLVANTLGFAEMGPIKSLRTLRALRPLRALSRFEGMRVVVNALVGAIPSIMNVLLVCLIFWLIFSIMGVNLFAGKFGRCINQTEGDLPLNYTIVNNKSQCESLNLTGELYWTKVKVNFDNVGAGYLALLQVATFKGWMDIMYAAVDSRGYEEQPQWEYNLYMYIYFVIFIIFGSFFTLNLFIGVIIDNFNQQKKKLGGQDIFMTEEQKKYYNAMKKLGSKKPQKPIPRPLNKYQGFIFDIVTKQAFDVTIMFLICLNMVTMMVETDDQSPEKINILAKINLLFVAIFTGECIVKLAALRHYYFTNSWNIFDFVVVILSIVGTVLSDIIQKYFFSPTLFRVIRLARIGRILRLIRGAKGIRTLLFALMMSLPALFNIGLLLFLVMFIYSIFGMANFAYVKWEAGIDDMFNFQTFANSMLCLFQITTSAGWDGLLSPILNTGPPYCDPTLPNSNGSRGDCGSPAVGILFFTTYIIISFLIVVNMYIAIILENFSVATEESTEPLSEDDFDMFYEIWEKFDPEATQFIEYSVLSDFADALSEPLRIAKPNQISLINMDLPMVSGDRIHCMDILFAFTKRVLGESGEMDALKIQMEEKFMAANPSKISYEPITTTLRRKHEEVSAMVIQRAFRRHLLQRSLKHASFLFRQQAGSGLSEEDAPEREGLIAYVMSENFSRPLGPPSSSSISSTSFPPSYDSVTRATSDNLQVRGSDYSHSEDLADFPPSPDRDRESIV
# Procedure, shortened: as §1
# hERG = hERG (Homo sapiens, UniProt Q12809); assay: in vitro; settings: 100% = no change, <100% = inhibition
# Procedure, shortened: as §1
# Kir2.1 = biological target: T7, Kir2.1 (Homo sapiens, UniProt P63252); assay: Ion channel panel (IonWorks Barracuda): Kir2.1; type: cell-based; settings: 100% = no change, <100% = inhibition
# T7 construct: host or cells: HEK293 or CHO
# Procedure, shortened: as §1
# Kv1.1 = biological target: T8, Kv1.1 (Homo sapiens, UniProt Q09470); assay: cell-based; type: cell-based; settings: 100% = no change, <100% = inhibition
# T8 construct: host or cells: HEK293 or CHO
# T8 sequence (Q09470 whole entry): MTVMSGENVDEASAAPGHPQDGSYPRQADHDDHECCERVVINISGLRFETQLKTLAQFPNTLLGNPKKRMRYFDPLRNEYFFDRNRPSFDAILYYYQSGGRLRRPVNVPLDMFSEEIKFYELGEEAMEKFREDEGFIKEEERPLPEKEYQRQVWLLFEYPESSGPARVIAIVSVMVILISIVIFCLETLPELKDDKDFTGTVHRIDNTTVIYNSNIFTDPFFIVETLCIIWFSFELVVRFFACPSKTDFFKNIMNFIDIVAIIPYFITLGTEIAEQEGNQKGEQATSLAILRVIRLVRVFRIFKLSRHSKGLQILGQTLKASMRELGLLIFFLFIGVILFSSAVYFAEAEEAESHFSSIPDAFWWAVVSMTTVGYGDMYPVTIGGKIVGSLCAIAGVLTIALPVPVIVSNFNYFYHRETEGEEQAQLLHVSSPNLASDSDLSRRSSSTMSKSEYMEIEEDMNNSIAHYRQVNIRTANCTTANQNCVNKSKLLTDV
# Procedure, shortened: as §1
# Kv1.2 = biological target: T9, Kv1.2 (Homo sapiens, UniProt P16389); assay: cell-based; type: cell-based; settings: 100% = no change, <100% = inhibition
# T9 construct: host or cells: HEK293 or CHO
# Procedure, shortened: as §1
# Kv1.3 = biological target: T10, Kv1.3 (Homo sapiens, UniProt P22001); assay: cell-based; type: cell-based; settings: 100% = no change, <100% = inhibition
# T10 construct: host or cells: HEK293 or CHO
# T10 sequence (P22001 whole entry): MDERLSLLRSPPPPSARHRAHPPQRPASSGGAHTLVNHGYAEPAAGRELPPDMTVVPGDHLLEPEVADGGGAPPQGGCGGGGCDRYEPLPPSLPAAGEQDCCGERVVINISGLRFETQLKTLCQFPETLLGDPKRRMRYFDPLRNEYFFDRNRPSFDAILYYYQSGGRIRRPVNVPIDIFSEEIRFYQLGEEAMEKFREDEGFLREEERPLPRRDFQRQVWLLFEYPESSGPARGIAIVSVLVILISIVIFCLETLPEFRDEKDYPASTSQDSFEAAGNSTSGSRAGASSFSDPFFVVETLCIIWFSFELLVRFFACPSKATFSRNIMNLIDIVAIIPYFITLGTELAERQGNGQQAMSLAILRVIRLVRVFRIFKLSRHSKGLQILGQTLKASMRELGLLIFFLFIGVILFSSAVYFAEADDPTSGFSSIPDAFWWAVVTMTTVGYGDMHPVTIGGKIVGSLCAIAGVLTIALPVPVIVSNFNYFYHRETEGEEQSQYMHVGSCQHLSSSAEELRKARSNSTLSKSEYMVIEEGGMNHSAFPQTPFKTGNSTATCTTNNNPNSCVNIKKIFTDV
# Procedure, shortened: as §1
# Nav1.7 = biological target: T11, Nav1.7 (Homo sapiens, UniProt Q15858); assay: cell-based; type: cell-based; settings: 100% = no change; for Activity of Nav1.7 with peptide, expressed as a percentage of the reference compound: peptide at 0.2 μM; for Activity of Nav1.7 with peptide (percentage of the reference compound): peptide at 20 μM
# T11 construct: host or cells: HEK293 or CHO
# T11 sequence (Q15858 whole entry): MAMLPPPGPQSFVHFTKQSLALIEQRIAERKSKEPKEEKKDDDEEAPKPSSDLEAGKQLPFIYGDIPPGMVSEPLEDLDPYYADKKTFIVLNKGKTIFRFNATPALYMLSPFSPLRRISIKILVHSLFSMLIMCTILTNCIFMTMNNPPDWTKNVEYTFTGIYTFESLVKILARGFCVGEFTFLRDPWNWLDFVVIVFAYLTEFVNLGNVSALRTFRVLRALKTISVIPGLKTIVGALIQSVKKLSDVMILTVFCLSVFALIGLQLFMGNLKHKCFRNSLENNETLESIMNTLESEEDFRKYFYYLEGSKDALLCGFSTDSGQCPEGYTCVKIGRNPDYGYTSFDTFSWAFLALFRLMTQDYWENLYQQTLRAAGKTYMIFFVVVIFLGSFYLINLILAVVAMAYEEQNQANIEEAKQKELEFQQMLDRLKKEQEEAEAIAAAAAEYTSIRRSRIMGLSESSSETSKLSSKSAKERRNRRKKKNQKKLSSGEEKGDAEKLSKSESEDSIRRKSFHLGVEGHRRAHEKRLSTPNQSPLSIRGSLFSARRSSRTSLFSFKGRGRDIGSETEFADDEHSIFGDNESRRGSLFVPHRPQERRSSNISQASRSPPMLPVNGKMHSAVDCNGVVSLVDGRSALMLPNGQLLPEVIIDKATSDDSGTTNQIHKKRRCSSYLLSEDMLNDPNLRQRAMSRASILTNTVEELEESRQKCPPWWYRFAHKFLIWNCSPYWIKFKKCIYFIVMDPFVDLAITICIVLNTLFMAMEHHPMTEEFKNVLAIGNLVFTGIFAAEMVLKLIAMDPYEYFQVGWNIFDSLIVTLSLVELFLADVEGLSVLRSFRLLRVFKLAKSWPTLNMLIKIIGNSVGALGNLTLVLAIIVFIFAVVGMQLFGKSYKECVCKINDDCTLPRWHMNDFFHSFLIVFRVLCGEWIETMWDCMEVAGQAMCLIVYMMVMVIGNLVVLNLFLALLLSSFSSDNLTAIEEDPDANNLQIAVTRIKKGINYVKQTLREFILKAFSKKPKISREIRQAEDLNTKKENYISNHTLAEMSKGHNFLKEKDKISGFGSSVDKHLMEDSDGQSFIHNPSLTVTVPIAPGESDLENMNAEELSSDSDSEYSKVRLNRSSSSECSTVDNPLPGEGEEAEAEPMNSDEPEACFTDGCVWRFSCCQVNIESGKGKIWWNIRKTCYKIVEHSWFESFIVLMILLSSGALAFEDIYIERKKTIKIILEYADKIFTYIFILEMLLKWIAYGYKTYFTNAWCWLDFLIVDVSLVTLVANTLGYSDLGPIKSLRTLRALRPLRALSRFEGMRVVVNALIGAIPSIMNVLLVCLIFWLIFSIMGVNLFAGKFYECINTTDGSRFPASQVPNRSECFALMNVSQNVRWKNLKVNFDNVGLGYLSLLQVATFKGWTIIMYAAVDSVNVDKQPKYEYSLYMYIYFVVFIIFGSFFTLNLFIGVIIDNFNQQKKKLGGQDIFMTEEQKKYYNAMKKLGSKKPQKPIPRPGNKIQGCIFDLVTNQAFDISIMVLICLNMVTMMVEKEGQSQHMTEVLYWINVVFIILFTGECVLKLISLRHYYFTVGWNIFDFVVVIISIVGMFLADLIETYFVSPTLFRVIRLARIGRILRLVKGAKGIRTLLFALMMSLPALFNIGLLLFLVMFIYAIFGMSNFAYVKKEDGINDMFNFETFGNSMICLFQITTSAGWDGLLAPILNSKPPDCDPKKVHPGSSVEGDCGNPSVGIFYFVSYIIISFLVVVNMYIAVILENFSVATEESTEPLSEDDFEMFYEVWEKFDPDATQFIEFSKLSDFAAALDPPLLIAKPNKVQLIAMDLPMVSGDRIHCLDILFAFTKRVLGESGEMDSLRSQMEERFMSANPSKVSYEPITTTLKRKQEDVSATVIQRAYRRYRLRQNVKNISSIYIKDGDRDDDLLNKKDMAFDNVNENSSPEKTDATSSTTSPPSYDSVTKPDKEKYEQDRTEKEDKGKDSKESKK
# NR2A = biological target: T12, NR2A (Homo sapiens, UniProt Q12879); assay: Ion channel panel (IonWorks Barracuda): NR2A; type: cell-based; settings: 100% = no change, <100% = inhibition
# T12 construct: host or cells: HEK293 or CHO
# Procedure, shortened: as §1
# NR2B = biological target: T13, NR2B (Homo sapiens, UniProt Q13224); assay: Ion channel panel (IonWorks Barracuda): NR2B; type: cell-based; settings: 100% = no change, <100% = inhibition
# T13 construct: host or cells: HEK293 or CHO
# Procedure, shortened: as §1
# TRPA1 = biological target: T14, TRPA1 (Homo sapiens, UniProt O75762); assay: Ion channel panel (IonWorks Barracuda): TRPA1; type: cell-based; settings: 100% = no change, <100% = inhibition
# T14 construct: host or cells: HEK293 or CHO
# Procedure, shortened: as §1
# TRPV1 = biological target: T15, TRPV1 (Homo sapiens, UniProt Q8NER1); assay: Ion channel panel (IonWorks Barracuda): TRPV1; type: cell-based; settings: 100% = no change, <100% = inhibition
# T15 construct: host or cells: HEK293 or CHO
# Procedure, shortened: as §1
# [1] = first of two Nav1.5 columns (probably TP1)
# [2] = second of two Nav1.5 columns (probably TP2)
# [3] = first of two Nav1.7 columns (probably TP1)
# [4] = second of two Nav1.7 columns (probably TP2)
substance,measurement,setting,value
34 (GGYSRCQLQGFNCVVRSYGLPTIPCCRGLTCRSYFPGSTYGRCQRY) [compound 34],Activity of 5HT3a with peptide (percentage of the reference compound),5HT3a,97%
same,"Activity of 5HT3a with peptide, expressed as a percentage of the reference compound",5HT3a,114%
same,"Activity of a3b4 with peptide, expressed as a percentage of the reference compound",α3β4; peptide at 0.2 μM,103%
same,Activity of a3b4 with peptide (percentage of the reference compound),α3β4; peptide at 20 μM,97%
same,"Activity of a4b2 with peptide, expressed as a percentage of the reference compound",α4β2; peptide at 0.2 μM,81%
same,Activity of a4b2 with peptide (percentage of the reference compound),α4β2; peptide at 20 μM,51%
same,"Activity of Cav2.1 with peptide, expressed as a percentage of the reference compound",Cav2.1; peptide at 0.2 μM,86%
same,Activity of Cav2.1 with peptide (percentage of the reference compound),Cav2.1; peptide at 20 μM,111%
same,"Activity of Cav2.2 with peptide, expressed as a percentage of the reference compound",Cav2.2; peptide at 0.2 μM,130%
same,Activity of Cav2.2 with peptide (percentage of the reference compound),Cav2.2; peptide at 20 μM,94%
same,"Activity of Kv2.1 with peptide, expressed as a percentage of the reference compound",Kv2.1; peptide at 0.2 μM,98%
same,Activity of Kv2.1 with peptide (percentage of the reference compound),Kv2.1; peptide at 20 μM,97%
same,"Activity of GABA with peptide, expressed as a percentage of the reference compound",GABA; peptide at 0.2 μM,107%
same,Activity of GABA with peptide (percentage of the reference compound),GABA; peptide at 20 μM,117%
same,"Activity of Nav1.5 with peptide, expressed as a percentage of the reference compound",Nav1.5; [1],111%
same,"Activity of Nav1.5 with peptide, expressed as a percentage of the reference compound",Nav1.5; [2],113%
same,Activity of Nav1.5 with peptide (percentage of the reference compound),Nav1.5; [1],101%
same,Activity of Nav1.5 with peptide (percentage of the reference compound),Nav1.5; [2],101%
same,"Activity of hERG with peptide, expressed as a percentage of the reference compound",hERG; peptide at 0.2 μM,84%
same,Activity of hERG with peptide (percentage of the reference compound),hERG; peptide at 20 μM,66%
same,"Activity of Kir2.1 with peptide, expressed as a percentage of the reference compound",Kir2.1; peptide at 0.2 μM,97%
same,Activity of Kir2.1 with peptide (percentage of the reference compound),Kir2.1; peptide at 20 μM,50%
same,"Activity of Kv1.1 with peptide, expressed as a percentage of the reference compound",Kv1.1; peptide at 0.2 μM,109%
same,Activity of Kv1.1 with peptide (percentage of the reference compound),Kv1.1; peptide at 20 μM,111%
same,"Activity of Kv1.2 with peptide, expressed as a percentage of the reference compound",Kv1.2; peptide at 0.2 μM,96%
same,Activity of Kv1.2 with peptide (percentage of the reference compound),Kv1.2; peptide at 20 μM,51%
same,"Activity of Kv1.3 with peptide, expressed as a percentage of the reference compound",Kv1.3; peptide at 0.2 μM,108%
same,Activity of Kv1.3 with peptide (percentage of the reference compound),Kv1.3; peptide at 20 μM,100%
same,"Activity of Nav1.7 with peptide, expressed as a percentage of the reference compound",Nav1.7; [3],102%
same,"Activity of Nav1.7 with peptide, expressed as a percentage of the reference compound",Nav1.7; [4],104%
same,Activity of Nav1.7 with peptide (percentage of the reference compound),Nav1.7; [3],86%
same,Activity of Nav1.7 with peptide (percentage of the reference compound),Nav1.7; [4],80%
same,"Activity of NR2A with peptide, expressed as a percentage of the reference compound",NR2A; peptide at 0.2 μM,112%
same,Activity of NR2A with peptide (percentage of the reference compound),NR2A; peptide at 20 μM,77%
same,"Activity of NR2B with peptide, expressed as a percentage of the reference compound",NR2B; peptide at 0.2 μM,127%
same,Activity of NR2B with peptide (percentage of the reference compound),NR2B; peptide at 20 μM,66%
same,"Activity of TRPA1 with peptide, expressed as a percentage of the reference compound",TRPA1; peptide at 0.2 μM,91%
same,Activity of TRPA1 with peptide (percentage of the reference compound),TRPA1; peptide at 20 μM,97%
same,"Activity of TRPV1 with peptide, expressed as a percentage of the reference compound",TRPV1; peptide at 0.2 μM,110%
same,Activity of TRPV1 with peptide (percentage of the reference compound),TRPV1; peptide at 20 μM,71%
